# Reference: the supplement of paper PMC12042874
# ± gives the uncertainty stated by the source.
# Assay: amyloid nucleation score (Sup35N fusion, yeast selection) (log enrichment); library NNK2; higher = more nucleation; inactive = no reads after selection
# In short: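 For the nucleation score, DiMSum gave the log enrichment of output over input reads, centred on the mode score of non-aggregating sequences. Psi-negative yeast expressing Sup35N fused to peptides of 20 random codons were induced with 100 μM copper sulfate for 24 hours and grown 7 days at 30°C on medium lacking adenine and uracil. Input and output plasmid inserts were Illumina-sequenced, and sequences with under 100 input reads were excluded.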
row,Substance,amyloid nucleation score
1,YEGPWQLIVVSTISVFTNSC,-0.156 ± 0.38
2,LRQRY,-0.233 ± 0.64
3,VVQGVIFNGDMLNRGSLGKI,-0.129 ± 0.79
4,QLALLMFMQTFNSYS,7.43 ± 0.059
5,NELKY,0.02 ± 0.56
6,HTTDEISAS,1.09 ± 0.36
7,SATRDYHRLWCVVRLLLNAA,0.342 ± 0.46
8,MSSCLRL,4.51 ± 0.056
9,RCKYWNTKCTTIYRGRVSYL,-0.733 ± 0.29
10,IPMSRGVQF,0.82 ± 0.14
11,YRGQLARCDILHSWQTVCSM,-0.337 ± 0.49
12,LALSRYFGL,-0.909 ± 0.54
13,ACILSVYFS,2.12 ± 0.15
14,IAYATPPSHGAC,1.32 ± 0.15
15,GCGVL,-0.91 ± 0.55
16,HDYRVTYDVF,-1.24 ± 1.1
17,MYSYFSRSMTHTNNGLSSLA,4.38 ± 0.045
18,YYLGWIMLVHYGSWTTCLVR,0.531 ± 0.64
19,TLQMGQSMPSFFGLRWAVYR,0.503 ± 0.43
20,KGSDSYLFIERWCLKMNISL,inactive
21,LFYGNWPVFKGVLFCAVLVG,0.092 ± 0.79
22,LIVYKLV,-0.094 ± 0.74

row,Substance,amyloid nucleation score
1,LQHSTRLNWD,0.954 ± 0.51
2,RGSGKCYRAGFMIAIVTHPL,1.5 ± 0.41
3,DERGMCSLWSRCEYV,-0.287 ± 0.29
4,DFSFVANCSDYLLNILFKGE,-0.066 ± 0.74
5,RTMWSIFHYSTVVSRVSTMA,1.23 ± 0.45
6,NQFLMVWSDIDVRKDVRFLH,-0.977 ± 0.48
7,RFFYYVVTLDAFNTFHKHLG,-1.56 ± 1.1
8,VDCCSFSLWVVW,3.98 ± 0.093
9,ALDFSRSRDKGG,1.42 ± 0.23
10,GELDGNRERILRRRGTMDYQ,2.56 ± 0.091
11,LTNKLELNLGASIADSVGNN,-0.89 ± 0.49
12,SGQYKENYGGFHHMLVRWRC,-0.042 ± 0.27
13,QICHHIDYVFRCHDI,0.585 ± 0.8
14,FFWSLGSYILHYC,inactive
15,LCKFFDTVVSMLGSVCSGNQ,3.22 ± 0.1
16,IVDRAFDRAFRCGTGFGTDI,inactive
17,LFISVSYSEFVFQIQDALRC,1.48 ± 0.12
18,RHVMSR,0.419 ± 0.23
19,HLRQWDEYLETGCVN,0.32 ± 0.33
20,SFRFGEKDCWLDCCRVMRKK,5.59 ± 0.068
21,CPVFGSIGGLISNSWYVTLM,5.335 ± 0.046
22,FLIFDRSKCCCVDTRGSGGT,inactive

row,Substance,amyloid nucleation score
1,ADIAYFRLVMLKHTIYPVHM,1.82 ± 0.27
2,FRCAE,3.84 ± 0.091
3,ARVRTMSVRFPVLSVVCYKL,3.69 ± 0.057
4,LIISRTFVTAPM,inactive
5,YDQSICLVRNVIAIYDMGSV,6.81 ± 0.084
6,VRFEELTEY,-0.171 ± 1
7,NWKWVRSKVAWPMRSEHHVE,1.65 ± 0.21
8,YSFNALRRY,0.632 ± 0.25
9,NIPRRGIVGWTAL,inactive
10,YAFHSSWYADRSALLQLN,0.434 ± 0.3
11,ESIYLVGICGSSG,0.247 ± 1
12,AYFRLWVRAWTLASGE,0.938 ± 0.2
13,DRAWQFPGDRAINGVRSAFF,-1.04 ± 0.63
14,SSYVVNSERVSDVARHSTLQ,1.91 ± 0.21
15,WIDGVFTIVSFYMELEGIRV,inactive
16,YMKNSGHDMASLRNIYLIFR,5.15 ± 0.075
17,YKISDRVALISYPNFAIVWT,-2.25 ± 0.78
18,FTCNACGYERSSVAYRNNPL,-0.22 ± 1.1
19,GKINITAFAWLKAFADRHWI,0.705 ± 0.8
20,ELSLTCNGDQLIGMKGGADK,0.008 ± 0.38
21,SLNLFV,-0.901 ± 0.78
22,LTNCRIVLSLNQARVRIESI,0.218 ± 0.8

row,Substance,amyloid nucleation score
1,FIMMDRAGSMIYSKGTRNIR,3.05 ± 0.11
2,WYSSGMTGIIRRVDKWCAFS,-0.939 ± 0.45
3,VARVY,-0.625 ± 0.36
4,DFANFMGCMVNEAPRLHFAL,0.404 ± 0.38
5,SPIYYIKGYFLLISKCFADR,4.56 ± 0.073
6,NADHDLSEILVNRRTGWFHF,5.836 ± 0.041
7,HLFTSCYYYMPLYLLSQRQY,6.095 ± 0.044
8,HYAANVVRISYCGGHSRANF,5.1 ± 0.077
9,ANLLKTRRVMYRGFG,0.611 ± 0.38
10,IRPSLGRR,1.79 ± 0.26
11,RVYLFFYAYHHVICANSSYK,-1.11 ± 0.56
12,EFCMEDQSMSLLWDYY,-0.183 ± 1
13,LFYGLGLICFLISFPIELNH,inactive
14,KGLLCTHESMGVYRDSWPCY,-0.067 ± 0.49
15,YELNSLMKMSYAEQFPKTWA,0.447 ± 0.46
16,KTSWVVYDGFRARDARSWRS,-0.245 ± 0.48
17,YHGYLPD,-0.826 ± 0.63
18,CQFSTQMMVICSFTTLTSVL,1.98 ± 0.13
19,PMMSIAMCVSSTPLRYFRVR,2 ± 0.12
20,RARFHFVKTCSTQRSMPHMG,3.21 ± 0.073
21,IQWFIWN,6.806 ± 0.027
